For assay [1], the target named is T1, β1 integrin (Homo sapiens, UniProt P05556+P17301).
T1 construct: endogenous in cells; host or cells: RKO (A4); RKO, KM12SM, MDA-MB-468 and BLM (A9)
Kind of assay: β1 integrin activation by CDH17 proteins or cadherin RGD peptides (HUTS21 flow cytometry). To be noted: for conformational change of β1-integrin into a high affinity conformation: 9 aa peptides, MDA-MB-468, BLM and RKO cells, FIG. 16; for β1 integrin in high-affinity conformation: RKO and KM12SM cells, FIG. 5B, 5C; for induction of β1 integrin activation: RKO cells, 1 μg/mL peptide, FIG. 17. The format is cell-based. Here is the method: Cells were detached with 2 mM EDTA in PBS, incubated at 4° C. with primary antibodies (10 μg/ml) for 30 min, washed and incubated with Alexa 488 labelled-secondary antibodies (anti-mouse IgG or anti-rabbit IgG, Dako). Fluorescence was analysed in a Coulter Epics XL cytofluorometer. Mean fluorescence intensities for the indicated antibodies are shown inside each panel. As a reference, irrelevant control antibodies (anti-cadherin-11, Santa Cruz Biotechnologies) gave a mean fluorescence intensity of 0.3.
RKO cells were detached with 2 mm EDTA in PBS, washed with PBS, resuspended in DMEM and incubated with a 9-amino acid peptide containing the RGD motif and the flanking sequences from cadherin 5 (SEQ ID NO: 37 for the RGD motif of domain 2 (CDH5A), and SEQ ID NO: 19 for the RGD motif of domain 3 (CDH5B)), cadherin 6 (SEQ ID NO: 38), cadherin 17 (VSLRGDTRG) (SEQ ID NO: 1), cadherin 20 (SEQ ID NO: 39), and cadherin 16 (SEQ ID NO: 31, RAIRGDTEG) for 25 min at 37° C. in presence of immune sera or control serum (diluted 1:50). After incubation, cells were subjected to flow cytometry assays using anti-β1 integrin in high-affinity conformation antibodies (Huts21, BD Pharmingen) and Alexa 488-coupled anti-mouse IgG antibodies (Abcam). Fluorescence was analysed in a Coulter Epics XL cytofluorometer. Mean fluorescence intensities for the indicated antibodies are shown inside each panel. As a reference, irrelevant control antibodies gave a mean fluorescence intensity of 0.3.
Alternatively, RKO cells were starved for 4 h, detached with EDTA 2 mM in PBS, and incubated in serum-free DMEM with 1 μg/mL of the following peptides: 9 aa peptides including the RGD motifs and the flanking sequences corresponding to the cadherin 17 (SEQ ID NO: 1) and the two motifs present in cadherin-5 (SEQ ID NO: 37 for the RGD motif of domain 2 (CDH5A), and SEQ ID: 19 for the RGD motif of domain 3 (CDH5B)), and 7 aa or 5 aa peptides with 2 aa or 1 aa respectively in each side of the RGD motif corresponding to the sequence of CDH17, SLRGDTR (SEQ ID NO: 32), and LRGDT (SEQ ID NO: 14), respectively. Simultaneously the cells were incubated to the indicated anti-CDH17 RGD monoclonal antibodies (10 μg/mL). After 40 min, cells were washed and subjected to flow cytometry assays using HUTS21 antibody, which binds to β1-integrin in high affinity conformation. Data were collected in a FACScalibur™ cytometer (BD) and represented as % of the β1-integrin activation induced by the 9 aa CDH17 RGD peptide (SEQ ID NO: 1).

The test system of assay [2] is RKO and KM12SM cells. The assay can be described thus: Cell adhesion to Matrigel after incubation with CDH17 DOM6 or Ecd. The format is cell-based, human. To be noted: FIG. 5D. How it is done:
For cell adhesion, 96-well plates were coated with Matrigel (4 μL/mL) (BD Biosciences) or type IV collagen ([…]) (Sigma-Aldrich) in coating buffer (0.1 M NaHCO3 pH 8.8) for 20 h and incubated with adhesion medium (0.4% BSA in serum-free DMEM) for 2 h to block unspecific binding. Cell were starved for 5 h without serum, labeled with BCECF-AM (Invitrogen), detached with 2 mM EDTA in PBS, resuspended in serum-free DMEM and 7×10^4 cells in 100 μL were added to plates in triplicate and then incubated for 25 min. Non-adherent cells were removed by three washes with DMEM. Bound cells were quantified using a fluorescence analyzer (POLARstar Galaxy).

Assay [3] has as its system RKO and KM12SM cells. The assay can be described thus: Soluble binding assay using CDH17 ectodomain as ligand (flow cytometry). It is filed as cell-based, human. To be noted: 10 μg/mL, FIG. 3E. How it is done: (§1) For soluble binding assays, cells were detached, incubated for 40 min with CDH17 ectodomain (10 μg/mL) at 37° C. in Ca2+, Mg2+ and Mn2+-free HBSS medium (Life Technologies), washed, incubated with anti-CDH17 antibodies at 4° C., washed again, incubated with secondary antibodies and analyzed by flow cytometry. For cell adhesions to CDH17 Domain 6 (2-10 μg/mL), adhesion assays in 96 wells microtiter plates were performed as above but in medium containing 1 mM MnCl2 and cells were washed gently, using a multi-channel pipette. For blocking assays, cells were preincubated with anti-β1 integrin (5 μg/mL) for 10 min before adhesion.

Assay [4] has as its system RKO and KM12SM cells. The assay can be described thus: Cell adhesion to plates coated with CDH17 domain 6. The format is cell-based, human. To be noted: for inhibition of cell adhesion to CDH17 domain 6 wt: FIG. 4B; for optimal dose for promoting cell adhesion to coated plates: FIG. 4A. Here is the method:
as §1

T1 sequence (P05556 21-798): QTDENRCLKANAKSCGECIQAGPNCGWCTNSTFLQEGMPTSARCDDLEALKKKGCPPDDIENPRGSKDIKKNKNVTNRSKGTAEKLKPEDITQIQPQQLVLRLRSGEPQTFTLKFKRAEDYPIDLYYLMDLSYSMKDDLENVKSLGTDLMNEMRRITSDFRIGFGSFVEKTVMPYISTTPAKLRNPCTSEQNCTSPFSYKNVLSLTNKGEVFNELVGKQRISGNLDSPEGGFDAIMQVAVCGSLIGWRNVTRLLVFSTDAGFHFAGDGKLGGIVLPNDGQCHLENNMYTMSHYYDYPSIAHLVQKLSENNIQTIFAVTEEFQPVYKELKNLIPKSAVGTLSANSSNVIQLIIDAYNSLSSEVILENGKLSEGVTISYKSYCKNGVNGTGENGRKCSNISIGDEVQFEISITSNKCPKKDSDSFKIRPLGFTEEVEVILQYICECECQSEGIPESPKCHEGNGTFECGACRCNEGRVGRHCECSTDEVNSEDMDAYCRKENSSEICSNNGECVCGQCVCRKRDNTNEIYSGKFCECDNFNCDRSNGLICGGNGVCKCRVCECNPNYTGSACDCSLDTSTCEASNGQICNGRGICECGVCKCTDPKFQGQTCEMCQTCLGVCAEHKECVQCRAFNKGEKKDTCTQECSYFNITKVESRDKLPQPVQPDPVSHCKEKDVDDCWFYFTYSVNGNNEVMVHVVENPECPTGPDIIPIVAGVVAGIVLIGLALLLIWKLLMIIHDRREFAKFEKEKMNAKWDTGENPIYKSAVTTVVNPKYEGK
T1 sequence (P17301 30-1181): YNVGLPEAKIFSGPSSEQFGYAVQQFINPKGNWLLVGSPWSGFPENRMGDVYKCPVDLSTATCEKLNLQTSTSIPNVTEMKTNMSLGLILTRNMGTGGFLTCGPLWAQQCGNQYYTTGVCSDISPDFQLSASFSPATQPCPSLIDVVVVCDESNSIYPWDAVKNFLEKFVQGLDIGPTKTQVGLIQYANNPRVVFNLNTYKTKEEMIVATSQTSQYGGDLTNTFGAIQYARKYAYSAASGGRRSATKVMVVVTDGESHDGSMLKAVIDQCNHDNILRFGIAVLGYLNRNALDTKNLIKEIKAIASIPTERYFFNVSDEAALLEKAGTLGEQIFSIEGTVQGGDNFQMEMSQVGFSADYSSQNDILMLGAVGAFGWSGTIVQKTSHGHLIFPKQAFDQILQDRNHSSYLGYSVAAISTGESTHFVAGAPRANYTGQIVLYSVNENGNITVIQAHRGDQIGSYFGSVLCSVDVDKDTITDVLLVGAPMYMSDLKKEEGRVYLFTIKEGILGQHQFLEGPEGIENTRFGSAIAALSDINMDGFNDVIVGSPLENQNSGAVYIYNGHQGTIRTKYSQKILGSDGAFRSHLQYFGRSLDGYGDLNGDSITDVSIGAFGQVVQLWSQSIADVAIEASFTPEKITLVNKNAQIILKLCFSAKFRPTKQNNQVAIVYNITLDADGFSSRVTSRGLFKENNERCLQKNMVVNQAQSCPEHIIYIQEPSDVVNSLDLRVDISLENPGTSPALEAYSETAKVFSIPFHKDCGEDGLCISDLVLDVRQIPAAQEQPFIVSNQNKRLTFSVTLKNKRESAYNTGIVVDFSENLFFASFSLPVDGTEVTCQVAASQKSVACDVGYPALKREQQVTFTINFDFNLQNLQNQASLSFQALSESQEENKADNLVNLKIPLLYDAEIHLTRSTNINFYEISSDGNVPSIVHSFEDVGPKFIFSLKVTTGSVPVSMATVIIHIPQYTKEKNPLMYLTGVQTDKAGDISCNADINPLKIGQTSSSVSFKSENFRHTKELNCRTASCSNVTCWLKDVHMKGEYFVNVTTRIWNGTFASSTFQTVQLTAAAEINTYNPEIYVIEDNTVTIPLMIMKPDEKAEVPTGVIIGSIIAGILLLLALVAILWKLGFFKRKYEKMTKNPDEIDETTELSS

Regarding “RAIRGDTEG (listed as Homo sapiens) [SEQ ID NO: 31, reference compound]”, in assay [1], the “conformational change of β1-integrin into a high affinity conformation” value (“conformational change” for short) is “not”.

“RAIRRGDTEG (listed as Homo sapiens) [CDH16 RGD, reference compound]”: the “β1 integrin in high-affinity conformation” value in assay [1] was “had no effect on β1 integrin activation”.

Consider “QGLRGDSGT (listed as Homo sapiens) [CDH5A]”, for which, in assay [1], the “conformational change” value is “induced the conformational change of β1-integrin into a high affinity conformation” and the “induction of β1 integrin activation” value was “able to activate beta1 integrin”.

As for SLRGDTR (listed as Homo sapiens), the “induction of β1 integrin activation” value in assay [1] was “able to induce efficiently the integrin activation”.

For “DMDRGDGSI (listed as Homo sapiens) [SEQ ID NO: 39]”, the “conformational change” value in assay [1] is recorded as “induced the conformational change of β1-integrin into a high affinity conformation”.

On to “Ecd RAD: recombinant CDH17 ectodomain mutant lacking RGD motif (RAD)”, for which the “cell adhesion to Matrigel after incubation” value (from here on “cell adhesion to Matrigel”) in assay [2] is given as “significantly enhanced”. Also, the “binding to the cell surface” value in assay [3] was “unable to bind to cells”.

With RADS [RADS peptide], the “inhibition of cell adhesion to CDH17 domain 6 wt” value in assay [4] (both cell lines) is recorded as “did not inhibit cell adhesion”.

“CDH17 ectodomain: purified recombinant CDH17 ectodomain (wild type) expressed in baculovirus”: the “cell adhesion to Matrigel” value in assay [2] is recorded as “significant increase in cell adhesion to Matrigel”. For the same molecule, the “binding to the cell surface” value in assay [3] is listed as “bound to the cell surface”. Moreover, the “β1 integrin in high-affinity conformation” value in assay [1] is given as “enhanced the amount of β1 integrin in high-affinity conformation”.

In the case of “SILRGDYQD (listed as Homo sapiens) [CDH5 RGD peptide]”, in assay [1], the “conformational change” value is “induced the conformational change of β1-integrin into a high affinity conformation” and the “induction of β1 integrin activation” value is on record as “able to activate beta1 integrin”.

As for “DQDRGDGSL (listed as Homo sapiens) [SEQ ID NO: 38]”, the “conformational change” value in assay [1] is “induced the conformational change of β1-integrin into a high affinity conformation”.

For “VSLRGDTRG (listed as Homo sapiens) [CDH17 peptide]”, in assay [1], the “conformational change” value is given as “induced the conformational change of β1-integrin into a high affinity conformation” and the “β1 integrin in high-affinity conformation” value was “increased high-affinity conformation β1 integrin in both cell lines”.

Take LRGDT (listed as Homo sapiens): the “induction of β1 integrin activation” value in assay [1] was “able to induce efficiently the integrin activation”.

Consider RGDS [RGDS peptide], for which, in assay [4] (both cell lines, 1 mM MnCl2, FIG. 4B), the “concentration at which competition of cell adhesion to CDH17 domain 6 wt started” value is 1 µM. In addition, in assay [4] (both cell lines), the “inhibition of cell adhesion to CDH17 domain 6 wt” value is recorded as “clear dose-dependent effect”.

B1: domain 6 wt: recombinant CDH17 domain 6 (571-665) expressed in E. coli (protein)
chain: FQAKVSEDVAIGTKVGNVTAKDPEGLDISYSLRGDTRGWLKIDHVTGEIFSVAPLDREAGSPYRVQVVATEVGGSSLSSVSEFHLILMDVNDNPP
Take B1: the “cell adhesion to Matrigel” value is listed as “significant increase in cell adhesion to Matrigel” in assay [2] and “significantly enhanced” in assay [2] (listed as CDH17 DOM6 wt). The “optimal dose for promoting cell adhesion to coated plates” value turned out to be 10 µg/mL in assay [4] (KM12SM) and 2 µg/mL in assay [4] (RKO). In addition, the “β1 integrin in high-affinity conformation” value in assay [1] is listed as “enhanced the amount of β1 integrin in high-affinity conformation”.

(Values after patent US10829560B2, “Agents binding specifically to human cadherin-17, human cadherin-5, human cadherin-6 and human cadherin-20 RGD motif” (CONSEJO SUPERIOR DE INVESTIGACIONES CIENTÍFICAS, priority 2015, dated 2020).)
